Results taken from PMC9486540.

Biological target: C5b6 (UniProt P13671)
Experiment: BLI; as a1, but 100nM C7 pre-incubated with anti-C7 mAb TPP1653 (200nM or 2nM) before dipping the C5b6 sensors, then C8 and C9

binding response, percent of max response in controls (with 200nM TPP1653) (% of max response in controls): 60
Substance: human complement C7 (from UniProt P10643 23-843) (natural protein)
